Experimental data from patent US20090312249A1.
pKd: −log10 of the molar value.

Key:
[1] = molecular target: MD-2 (myeloid differentiation protein-2) (UniProt Q9Y6Y9); assay: SPR (BIAcore 3000): TFL amine-coupled on a CM5 chip, MD-2 at 8 to 250 nM as analyte, 25 C, 1:1 Langmuir fit
[2] = molecular target: MD-2 (myeloid differentiation protein-2) (UniProt Q9Y6Y9); assay: SPR (BIAcore 3000), TFL amine-coupled on CM5 chip, MD-2 8-250 nM as analyte, 1:1 Langmuir model, 25 C

Chain of UniProt Q9Y6Y9 (Q9Y6Y9 19-160 limits assumed): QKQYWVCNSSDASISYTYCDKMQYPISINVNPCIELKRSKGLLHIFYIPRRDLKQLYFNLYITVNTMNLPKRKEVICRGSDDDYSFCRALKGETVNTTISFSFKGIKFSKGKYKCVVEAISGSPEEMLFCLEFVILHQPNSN

- pKd [1]: 7.09
- koff [1]: 0.00187 s⁻¹
- kon [1]: 23100 M⁻¹ s⁻¹
- pKd [2]: 7.09
Substance: TFL (Fc-tagged hTLR4 full-length ectodomain) (Fc fusion)
